Where two headings read alike, the source gives them in different places.
B1: Rap1B (residues 1-167), GMP-PNP bound (domain or fragment, human, UniProt P61224 1-167, looked up)
chain: MREYKLVVLGSGGVGKSALTVQFVQGIFVEKYDPTIEDSYRKQVEVDAQQCMLEILDTAGTEQFTAMRDLYMKNGQGFALVYSITAQSTFNDLQDLREQILRVKDTDDVPMILVGNKCDLEDERVVGKEQGQNLARQWNNCAFLESSAKSKINVNEIFYDLVRQINR
B2: Rasip1 RA domain (residues 134-285) (domain or fragment, human, UniProt Q5U651 134-285, looked up)
chain: EPPLATRATAPPGVLKIFGAGLASGANYKSVLATARSTARELVAEALERYGLAGSPGGGPGESSCVDAFALCDALGRPAAAGVGSGEWRAEHLRVLGDSERPLLVQELWRARPGWARRFELRGREEARRLEQEAFGAADSEGTGAPSWRPQK
B3: trypsin-treated Rasip1 RA domain (domain or fragment, human, UniProt Q5U651 141-285, looked up)
chain: ATAPPGVLKIFGAGLASGANYKSVLATARSTARELVAEALERYGLAGSPGGGPGESSCVDAFALCDALGRPAAAGVGSGEWRAEHLRVLGDSERPLLVQELWRARPGWARRFELRGREEARRLEQEAFGAADSEGTGAPSWRPQK
B4: Radil RA domain (residues 51-193) (domain or fragment, human, UniProt Q96JH8 51-193, looked up)
chain: DPAELSTQLSAPGVLKVFGDSVCTGTHYKSVLATGTSSARELVKEALERYALDPRQAGQYVLCDVVGQAGDAGQRWQARCFRVFGDSEKPLLIQELWKPREGLSRRFELRKRSDVEELAAKEVDTITAGINAQARRLQRSRAK

Legend:
[1] = biological target: B2; experiment: ITC
[2] = biological target: B4; experiment: ITC
NMR linewidths = biological target: the molecule itself; experiment: NMR linewidths
[3] = biological target: B1; experiment: ITC
[4] = biological target: B1; experiment: ITC; remark: listed apart in the source
[5] = biological target: HRas (residues 1-189), GMP-PNP bound (human, UniProt P01112 1-189); experiment: ITC
Chain of HRas (residues 1-189), GMP-PNP bound (P01112 whole entry, the tested form may be a part): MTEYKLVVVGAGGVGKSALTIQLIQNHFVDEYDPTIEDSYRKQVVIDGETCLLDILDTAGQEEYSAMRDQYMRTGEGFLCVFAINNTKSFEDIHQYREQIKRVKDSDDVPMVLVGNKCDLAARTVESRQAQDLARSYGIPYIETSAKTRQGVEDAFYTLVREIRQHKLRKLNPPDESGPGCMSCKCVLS

crystal structure = biological target: the molecule itself; experiment: crystal structure
[6] = biological target: B1; experiment: crystal structure

Binder: B1
dH [1]: -3.4 kcal/mol | stoichiometry N [1]: 1.22 | dH [2]: -6.5 kcal/mol | stoichiometry N [2]: 1.04

Binder: B2
binding result (NMR linewidths): binds | Kd [3]: 770 ± 90 nM | Kd [4]: 900 nM | Kd [5]: 2200 nM

Binder: B3
binding result (crystal structure): binds | binding result [6]: binds

Binder: B4
Kd [4]: 1200 nM | Kd [5]: 3900 nM

— publication PMC5143164 (Structure (London, England : 1993), 2016)
